This assay deals with Nup159-Dbp5-Mg2+mantADP complex (S. cerevisiae | , UniProt P20449 1-482; P40477 1-1460). As to the kind of experiment: stopped-flow kinetics of mantADP dissociation.

Our source for the Kd values is article PMC6003625 (Journal of molecular biology, 2018).

Sequence of Nup159-Dbp5-Mg2+mantADP complex (P20449 whole entry, chain 1 of 2): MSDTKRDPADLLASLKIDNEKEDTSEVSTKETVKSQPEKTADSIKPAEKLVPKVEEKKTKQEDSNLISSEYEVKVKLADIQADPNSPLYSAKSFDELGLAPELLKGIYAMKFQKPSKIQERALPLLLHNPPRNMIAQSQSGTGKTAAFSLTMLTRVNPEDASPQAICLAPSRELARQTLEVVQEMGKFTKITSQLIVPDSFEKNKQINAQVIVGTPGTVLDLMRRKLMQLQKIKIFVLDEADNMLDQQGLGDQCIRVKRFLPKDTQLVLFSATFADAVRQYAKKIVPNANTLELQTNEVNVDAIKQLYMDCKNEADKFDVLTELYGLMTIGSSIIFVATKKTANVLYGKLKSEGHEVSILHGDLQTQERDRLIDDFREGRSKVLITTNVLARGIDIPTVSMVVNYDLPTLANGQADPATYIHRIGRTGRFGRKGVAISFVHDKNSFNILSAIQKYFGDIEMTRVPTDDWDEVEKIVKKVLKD
Sequence of Nup159-Dbp5-Mg2+mantADP complex (P40477 whole entry, chain 2 of 2): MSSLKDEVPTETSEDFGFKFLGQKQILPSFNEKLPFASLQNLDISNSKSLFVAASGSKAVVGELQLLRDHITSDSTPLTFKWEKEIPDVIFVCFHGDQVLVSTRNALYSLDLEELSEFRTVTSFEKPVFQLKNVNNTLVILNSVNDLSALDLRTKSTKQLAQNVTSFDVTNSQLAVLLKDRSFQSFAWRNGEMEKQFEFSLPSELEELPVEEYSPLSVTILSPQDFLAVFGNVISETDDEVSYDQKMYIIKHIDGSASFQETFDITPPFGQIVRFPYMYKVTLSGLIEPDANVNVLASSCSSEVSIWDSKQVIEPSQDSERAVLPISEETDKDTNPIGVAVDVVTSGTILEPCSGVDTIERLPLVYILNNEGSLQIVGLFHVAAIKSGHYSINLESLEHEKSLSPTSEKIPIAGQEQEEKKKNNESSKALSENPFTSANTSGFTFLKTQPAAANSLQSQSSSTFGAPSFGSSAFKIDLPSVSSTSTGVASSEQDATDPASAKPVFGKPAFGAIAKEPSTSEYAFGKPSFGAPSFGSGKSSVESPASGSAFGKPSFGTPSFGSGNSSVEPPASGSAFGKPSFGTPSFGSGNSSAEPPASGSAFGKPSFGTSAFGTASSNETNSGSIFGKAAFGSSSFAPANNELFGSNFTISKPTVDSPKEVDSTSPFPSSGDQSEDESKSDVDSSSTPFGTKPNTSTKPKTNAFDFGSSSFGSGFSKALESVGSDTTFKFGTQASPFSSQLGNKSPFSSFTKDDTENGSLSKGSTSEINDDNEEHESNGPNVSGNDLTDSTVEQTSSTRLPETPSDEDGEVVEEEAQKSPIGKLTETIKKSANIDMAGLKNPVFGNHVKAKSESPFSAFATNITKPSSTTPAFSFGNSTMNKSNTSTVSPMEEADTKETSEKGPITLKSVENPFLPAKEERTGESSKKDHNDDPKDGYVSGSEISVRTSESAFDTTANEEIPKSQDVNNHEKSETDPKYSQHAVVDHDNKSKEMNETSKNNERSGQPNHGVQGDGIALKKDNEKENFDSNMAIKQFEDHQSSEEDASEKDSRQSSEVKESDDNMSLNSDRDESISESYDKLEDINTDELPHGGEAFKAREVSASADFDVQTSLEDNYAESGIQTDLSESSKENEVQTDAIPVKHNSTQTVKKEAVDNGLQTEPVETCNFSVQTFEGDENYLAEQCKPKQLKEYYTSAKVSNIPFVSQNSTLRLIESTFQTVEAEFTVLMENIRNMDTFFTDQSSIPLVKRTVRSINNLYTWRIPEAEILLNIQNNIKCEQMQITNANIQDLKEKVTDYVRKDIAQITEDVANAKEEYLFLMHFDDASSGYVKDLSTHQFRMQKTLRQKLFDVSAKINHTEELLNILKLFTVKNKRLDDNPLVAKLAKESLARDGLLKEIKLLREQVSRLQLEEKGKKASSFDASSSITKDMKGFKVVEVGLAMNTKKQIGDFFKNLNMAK

B1: Gle1 (natural protein, UniProt Q12315 1-538, looked up)
chain: MRFVFDEVFNSDTDSPEFEETCSTTSSTSSQCPTPEPSPAIKLPSFTKVGTKKLVNESVVILDPALENALRDLNLQSKLIPINEPIVAASSIIVPHSTNMPLPRASHSSLLDNAKNSNATAPLLEAIEESFQRKMQNLVLANQKEIQSIRENKRRVEEQRKRKEEEERKRKEAEEKAKREQELLRQKKDEEERKRKEAEAKLAQQKQEEERKKIEEQNEKERQLKKEHEAKLLQQKDKLGKAVTNFDKISKMFWHYKDKIAQIKQDIVLPIKKADVNVRNLLSRHKRKINPKFGQLTNSNQQLFKIQNELTQLINDTKGDSLAYHWILNFIAKAVVHQAETEVRVKPESALPLGKLTLYLLVQFPELQELFMARLVKKCPFVIGFTCEIDTEKGRQNMGWKRNNENKWEDNTSYDERMGGILSLFAIITRLQLPQEFITTTSHPFPIALSWHILARICNTPLNLITNTHFVILGSWWDAAAVQFLQAYGNQASKLLILIGEELTSRMAEKKYVGAARLRILLEAWQNNNMESFPEMSP
Take B1: the Kd – broadly, the equilibrium constant for the complex coming apart – stood at 1800 nM.
